The assay deals with T1, AβpE3-38 (human, UniProt P05067 674-709, pyroglutamate at position 3 (N-terminal residue)).
T1 construct: range 3-38; The range counts on Aβ numbering, not on the APP precursor; also called human AβpE3-38
Nature of the assay: ELISA screening of hybridoma clones. The source says: The AβpE3 oligomere specific antibodies 9D5H6 (IgG2b) and 8C4D2 (IgG1) were generated by immunizing three Balb/c mice with AβpE3-38. After preparation of the lymph nodes cells were fused with the myeloma cell line P3-X63-Ag8. The hybridoma supernatants of mixed clones were screened by ELISA and subcloned. The monoclonal antibodies 9D5 and 8C4 were selected by ELISA against different N-terminal Aβ epitopes. Clones producing signals with AβpE3-38 and AβpE3-42, but no signal with […] were isolated and further characterized. For comparison, Aβ antibodies 4G8 (Aβ epitope 17-24; Covance), W0-2 (Aβ epitope 4-8; The Genetics Company), NT78 (against generic Aβ1-16, Synaptic Systems) and 2-48 (against N-terminal AβpE3, Synaptic Systems; Wirths, O., et al. J Neural Transm 117, 85-96 (2010)) were used. GFAP (rabbit) and IBA1 (rabbit) antisera were from Synaptic Systems and Wako Pure Chemicals respectively. Peptides were purchased from PSL (Heidelberg, Germany), reconstituted as indicated below and immediately frozen until further use.
In general terms: In an ELISA, binding on a coated surface is turned into a signal by an enzyme label.

T1 sequence (P05067 674-709): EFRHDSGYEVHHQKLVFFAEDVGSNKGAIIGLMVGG

B1: PG3-38 9D5H6 (antibody, V domains shown)
VH: QLQQSGAELMKPGASVKISCKATGYTFSSYWIEWVKQRPGHGLEWIGEILPGRGSTHYNEKFKGKATFTADTSSNTAYMQLSSLTSEDSAVYYCARSPITTSDYWGQGTTLTVSS
VL: DVVMTQTPLSLPVSLGDQASISCRSSQSLLHSNGNTYLHWYLQKPGQSPKLLIYKVSNRFSGVPDRFSGSGSGTDFTLKISRVEAEDLGVYFCSQSTHVPLTFGAGT
notes: The printed VH starts at QLQQ and the printed VL ends at FGAGT, so both may be slightly truncated; also called antibody obtainable from hybridoma DSM ACC3056
Consider B1, for which the binding result is listed as “binds”.
